To fix the notation:
B1: GST-mGFP-SH3BP2-FLAG (natural protein)
chain: MAAEEMQWPVPMKAIGAQNLLTMPGGVAKAGYLHKKGGTQLQLLKWPLRFVIIHKRCIYYFKSSTSASPQGAFSLSGYNRVMRAAEETTSNNVFPFKIIHISKKHRTWFFSASSEDERKSWMAFVRREIGHFHEKKELPLDTSDSSSDTDSFYGAVERPIDISLSSYPMDNEDYEHEDEDDSYLEPDSPGPMKLEDALTYPPAYPPPPVPVPRKPAFSDLPRAHSFTSKSPSPLLPPPPPKRGLPDTGSAPEDAKDALGLRRVEPGLRVPATPRRMSDPPMSNVPTVPNLRKHPCFRDSVNPGLEPWTPGHGTSSVSSSTTMAVATSRNCDKLKSFHLSSRGPPTSEPPPVPANKPKFLKIAEEPSPREAAKFAPVPPVAPRPPVQKMPMPEATVRPAVLPRPENTPLPHLQRSPPDGQSFRGFSFEKARQPSQADTGEEDSDEDYEKVPLPNSVFVNTTESCEVERLFKATDPRGEPQDGLYCIRNSSTKSGKVLVVWDESSNKVRNYRIFEKDSKFYLEGEVLFASVGSMVEHYHTHVLPSHQSLLLRHPYGYAGPR

The series “sedimentation assay” deals with the molecule itself. Description: sedimentation assay.
For series [1], the target named is T1, SH3BP2-FLAG (full-length) (mouse, UniProt Q06649 1-559).
T1 sequence: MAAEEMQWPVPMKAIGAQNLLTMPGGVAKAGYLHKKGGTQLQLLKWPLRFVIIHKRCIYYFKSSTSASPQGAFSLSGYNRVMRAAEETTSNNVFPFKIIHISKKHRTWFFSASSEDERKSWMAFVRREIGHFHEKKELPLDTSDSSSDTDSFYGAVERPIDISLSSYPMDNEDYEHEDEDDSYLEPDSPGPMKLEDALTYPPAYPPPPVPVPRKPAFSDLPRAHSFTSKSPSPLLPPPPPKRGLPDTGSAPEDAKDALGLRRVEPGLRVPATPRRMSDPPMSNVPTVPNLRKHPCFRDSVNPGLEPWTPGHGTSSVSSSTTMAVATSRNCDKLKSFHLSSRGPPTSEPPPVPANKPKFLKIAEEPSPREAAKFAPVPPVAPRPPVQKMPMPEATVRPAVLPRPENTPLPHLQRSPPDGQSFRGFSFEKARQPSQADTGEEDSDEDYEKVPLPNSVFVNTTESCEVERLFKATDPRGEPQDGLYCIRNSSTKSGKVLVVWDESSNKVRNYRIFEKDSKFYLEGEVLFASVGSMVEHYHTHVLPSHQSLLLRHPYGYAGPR
Description: co-IP.

For the series “GST-mGFP-SH3BP2-FLAG”, the target named is B1. The series can be described thus: recruitment into protein droplets.

Regarding B1, the binding result in the series “sedimentation assay” is given as “binds”.

B2: GST-cytAChRα (domain or fragment)
chain: NTHHRSPSTHIMPEWVRKVFIDTIPNIMFFSTMKRPSRDKQEKRIFTEDIDISDISGKPGPPPMGFHSPLIKHPEVKSAIEGVKYIAETMKSDQESNNAAEEWKYVAMVMDH
With B2, in series [1], the binding result is “binds”.

B3: GST-cytAChRα-mCherry (domain or fragment)
chain: NTHHRSPSTHIMPEWVRKVFIDTIPNIMFFSTMKRPSRDKQEKRIFTEDIDISDISGKPGPPPMGFHSPLIKHPEVKSAIEGVKYIAETMKSDQESNNAAEEWKYVAMVMDH
With B3, the binding result with GST-mGFP-SH3BP2-FLAG is listed as “binds”.

The record behind these values is doi:10.1101/2024.05.23.595491 (bioRxiv, 2024).
